Reference: patent US20010021505A1

What was measured:
[1] = biological target: NPM/ALK fusion protein (human); assay: co-immunoprecipitation with anti-ALK serum, immunoblot, SUP-M2 lysates
[2] = biological target: wild-type NPM (nucleophosmin) (human) (UniProt P06748); assay: co-immunoprecipitation, anti-NPM immunoblot
[3] = biological target: 85 kDa subunit of phosphatidylinositol 3-kinase (PI3-K) (human) (UniProt P27986); assay: co-immunoprecipitation, immunoblot, SUP-M2 lysates
[4] = biological target: phospholipase-Cγ (PLC-γ) (human) (UniProt P19174); assay: co-immunoprecipitation, immunoblot, SUP-M2 lysates
[5] = biological target: T1, Src homologous and collagen (SHC) protein (human) (UniProt P29353); assay: co-immunoprecipitation, immunoblot, SUP-M2 lysates
T1 sequence (tyrosine-phosphorylated (sites not given), looked up): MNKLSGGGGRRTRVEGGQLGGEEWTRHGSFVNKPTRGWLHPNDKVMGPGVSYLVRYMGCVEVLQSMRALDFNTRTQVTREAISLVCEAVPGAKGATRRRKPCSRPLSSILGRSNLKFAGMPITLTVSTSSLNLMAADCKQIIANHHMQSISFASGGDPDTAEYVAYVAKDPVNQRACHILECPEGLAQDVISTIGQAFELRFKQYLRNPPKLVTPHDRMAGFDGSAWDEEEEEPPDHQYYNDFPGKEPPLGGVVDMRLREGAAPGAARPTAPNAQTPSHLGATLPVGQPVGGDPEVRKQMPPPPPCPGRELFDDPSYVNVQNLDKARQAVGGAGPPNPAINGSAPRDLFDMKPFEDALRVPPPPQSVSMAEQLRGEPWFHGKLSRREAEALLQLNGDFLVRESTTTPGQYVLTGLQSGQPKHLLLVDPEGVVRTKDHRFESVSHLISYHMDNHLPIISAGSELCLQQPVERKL

Chain of UniProt P19174 (P19174 2-1290): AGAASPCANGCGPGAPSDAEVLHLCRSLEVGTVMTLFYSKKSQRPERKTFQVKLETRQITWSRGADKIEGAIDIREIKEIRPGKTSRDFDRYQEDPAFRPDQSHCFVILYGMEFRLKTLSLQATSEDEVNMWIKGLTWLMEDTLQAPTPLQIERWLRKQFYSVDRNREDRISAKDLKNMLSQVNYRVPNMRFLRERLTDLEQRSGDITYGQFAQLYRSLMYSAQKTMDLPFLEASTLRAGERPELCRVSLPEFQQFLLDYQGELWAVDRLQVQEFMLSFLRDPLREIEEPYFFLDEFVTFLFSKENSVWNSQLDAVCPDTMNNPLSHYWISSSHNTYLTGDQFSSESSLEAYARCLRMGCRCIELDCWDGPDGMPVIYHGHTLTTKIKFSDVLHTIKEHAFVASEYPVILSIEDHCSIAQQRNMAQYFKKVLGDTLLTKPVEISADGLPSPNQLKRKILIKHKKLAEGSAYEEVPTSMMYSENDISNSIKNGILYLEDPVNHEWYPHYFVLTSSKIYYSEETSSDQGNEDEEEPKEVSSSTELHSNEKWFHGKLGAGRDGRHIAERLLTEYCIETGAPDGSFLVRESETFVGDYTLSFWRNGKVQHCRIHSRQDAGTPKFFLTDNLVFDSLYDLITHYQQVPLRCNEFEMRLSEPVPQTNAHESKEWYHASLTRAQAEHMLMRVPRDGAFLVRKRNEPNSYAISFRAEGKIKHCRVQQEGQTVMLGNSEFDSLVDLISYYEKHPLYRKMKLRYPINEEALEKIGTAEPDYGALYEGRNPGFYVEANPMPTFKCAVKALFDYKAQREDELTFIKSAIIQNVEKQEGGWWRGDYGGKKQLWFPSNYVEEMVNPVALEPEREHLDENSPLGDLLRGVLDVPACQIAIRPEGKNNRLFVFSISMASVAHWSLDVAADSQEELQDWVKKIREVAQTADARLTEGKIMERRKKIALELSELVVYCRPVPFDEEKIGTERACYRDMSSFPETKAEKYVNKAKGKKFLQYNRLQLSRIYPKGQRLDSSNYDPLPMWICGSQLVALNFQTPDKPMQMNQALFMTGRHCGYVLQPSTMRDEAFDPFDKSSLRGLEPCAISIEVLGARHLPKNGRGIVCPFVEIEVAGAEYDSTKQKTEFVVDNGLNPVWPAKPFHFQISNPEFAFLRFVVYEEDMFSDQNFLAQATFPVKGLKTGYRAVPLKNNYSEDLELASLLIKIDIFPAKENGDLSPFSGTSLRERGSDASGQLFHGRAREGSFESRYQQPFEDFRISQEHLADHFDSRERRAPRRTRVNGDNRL
Chain of UniProt P27986 (P27986 2-724): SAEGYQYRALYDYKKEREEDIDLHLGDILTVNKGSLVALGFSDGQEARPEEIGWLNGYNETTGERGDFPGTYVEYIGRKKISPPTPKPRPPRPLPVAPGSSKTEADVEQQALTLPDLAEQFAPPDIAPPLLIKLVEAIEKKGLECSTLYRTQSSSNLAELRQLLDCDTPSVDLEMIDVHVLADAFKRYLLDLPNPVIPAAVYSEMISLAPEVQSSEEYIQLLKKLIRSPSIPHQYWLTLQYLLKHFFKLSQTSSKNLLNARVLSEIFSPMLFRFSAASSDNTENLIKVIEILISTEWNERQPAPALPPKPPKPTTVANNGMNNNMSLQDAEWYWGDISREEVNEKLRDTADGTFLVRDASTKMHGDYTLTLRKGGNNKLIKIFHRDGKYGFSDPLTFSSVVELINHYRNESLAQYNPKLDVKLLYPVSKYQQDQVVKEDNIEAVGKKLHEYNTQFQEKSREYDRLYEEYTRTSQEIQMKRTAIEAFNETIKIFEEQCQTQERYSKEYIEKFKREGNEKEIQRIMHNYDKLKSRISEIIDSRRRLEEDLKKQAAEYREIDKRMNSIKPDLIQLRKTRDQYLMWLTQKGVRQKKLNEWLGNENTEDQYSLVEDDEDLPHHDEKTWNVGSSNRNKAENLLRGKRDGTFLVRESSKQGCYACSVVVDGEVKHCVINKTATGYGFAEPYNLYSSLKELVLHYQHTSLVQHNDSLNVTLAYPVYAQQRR
Chain of UniProt P06748 (P06748 whole entry): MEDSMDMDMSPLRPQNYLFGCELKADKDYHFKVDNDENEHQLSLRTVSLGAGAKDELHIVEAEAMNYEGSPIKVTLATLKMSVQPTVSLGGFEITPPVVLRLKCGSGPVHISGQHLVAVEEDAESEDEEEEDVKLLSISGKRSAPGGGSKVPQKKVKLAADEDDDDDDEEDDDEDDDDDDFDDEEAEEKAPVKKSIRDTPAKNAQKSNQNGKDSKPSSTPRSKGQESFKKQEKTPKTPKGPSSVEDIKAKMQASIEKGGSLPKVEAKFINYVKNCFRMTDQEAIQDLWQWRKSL

Row | percentage of the total cellular amount of the substrate bound to NPM/ALK [1] [%] | stoichiometry of the association (ratio) (ratio NPM/ALK:NPM) [2] | percentage of the total cell pool of NPM/ALK bound to the substrate [3] [%] | percentage of the total cell pool of NPM/ALK bound to the substrate [4] [%] | percentage of the total cell pool of NPM/ALK bound to the substrate [5] [%] | Substance
1 | 1 | – | – | – | – | 85 kDa subunit of phosphatidylinositol 3-kinase (PI3-K) (from UniProt P27986 2-724)
2 | – | 1 | < 5 | < 5 | < 5 | NPM/ALK fusion protein (enzyme)
3 | 10 | – | – | – | – | Src homologous and collagen (SHC) protein (from UniProt P29353 1-473)
4 | 1 | – | – | – | – | phospholipase-Cγ (PLC-γ) (from UniProt P19174 2-1290) (enzyme)
